Source: patent EP4563159A1

Biological target: secretory IgA from human colostrum (human) (UniProt P11912)
Assay: solid-phase IgA binding assay (ELISA): streptavidin-peptide conjugate coated, secretory IgA from human colostrum titrated, anti-human IgA-HRP detection

Chain of UniProt P11912 (P11912 whole entry): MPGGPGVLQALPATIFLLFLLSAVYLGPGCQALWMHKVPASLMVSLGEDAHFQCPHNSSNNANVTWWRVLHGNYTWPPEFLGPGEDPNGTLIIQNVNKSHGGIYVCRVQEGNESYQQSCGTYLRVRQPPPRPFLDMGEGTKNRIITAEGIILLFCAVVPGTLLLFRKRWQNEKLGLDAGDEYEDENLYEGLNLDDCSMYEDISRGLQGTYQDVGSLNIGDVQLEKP

Binder | EC50 [nM]
HSVCLAYRGRPVCFPT (cyclized; carboxy terminal PEG linker and a biotin tag) [IgA binding peptide … (SEQ ID NO 36)] | 900
KMVCLAYRGRPVCFPT (cyclized; carboxy terminal PEG linker and a biotin tag) [IgA binding peptide … (SEQ ID NO 35)] | 900
